This note sets out measurements from PMC3241658.

This data set deals with T1, TWINKLE (UniProt Q96RR1 32-684).
T1 sequence: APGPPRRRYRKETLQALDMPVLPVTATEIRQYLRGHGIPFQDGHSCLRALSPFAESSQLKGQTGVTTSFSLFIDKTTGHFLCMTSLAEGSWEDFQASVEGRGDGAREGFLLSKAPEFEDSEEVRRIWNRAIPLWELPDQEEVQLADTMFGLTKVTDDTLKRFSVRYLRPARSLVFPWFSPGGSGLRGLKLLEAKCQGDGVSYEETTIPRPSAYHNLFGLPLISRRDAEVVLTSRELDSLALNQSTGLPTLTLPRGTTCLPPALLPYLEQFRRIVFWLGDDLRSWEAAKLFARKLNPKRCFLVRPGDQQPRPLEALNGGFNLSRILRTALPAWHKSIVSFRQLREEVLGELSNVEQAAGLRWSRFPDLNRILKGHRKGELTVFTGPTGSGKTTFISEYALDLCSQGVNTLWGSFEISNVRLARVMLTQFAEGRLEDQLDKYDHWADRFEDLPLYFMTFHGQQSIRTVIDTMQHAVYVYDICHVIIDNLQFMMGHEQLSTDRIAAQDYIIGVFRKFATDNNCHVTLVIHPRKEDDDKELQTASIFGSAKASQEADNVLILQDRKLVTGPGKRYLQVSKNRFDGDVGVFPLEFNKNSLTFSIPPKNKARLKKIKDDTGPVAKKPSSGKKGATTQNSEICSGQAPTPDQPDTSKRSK
Briefly: EMSA. A general note: A gel shift assay detects complexes by their altered migration in electrophoresis.

B1: closed circular ssDNA (100 nt) (ssDNA)
DNA: GAGGGGTATGTTTTTTTTTTTTTTTTTTTTTTTTTTTTTTTTTTTTTTTTTTTTTTTTTTTTTTTTTTTTTTTTTTTTTTTTTTTTTTTTCATACCCCTAT
As for B1, the binding result was “binds”.

B2: linear dsDNA (100 bp) (dsDNA)
DNA 1: GATTTTTTTTTTTTTTTTTTTTTTTTTTTTTTTTTTTTTCATACCCCTATGAGGGGTATGTTTTTTTTTTTTTTTTTTTTTTTTTTTTTTTTTTTTTTAT
DNA 2: ATAAAAAAAAAAAAAAAAAAAAAAAAAAAAAAAAAAAAAACATACCCCTCATAGGGGTATGAAAAAAAAAAAAAAAAAAAAAAAAAAAAAAAAAAAAATC
As to B2, the binding result is “binds”.

B3: linear ssDNA (100 nt) (ssDNA)
DNA: B2 DNA 1
As for B3, the binding result is listed as “binds”.
